Consider eleven variants from IntAct's records for PubMed 31515488.

The labels stand for the following.
B1: Medium-chain acyl-CoA ligase ACSF2, mitochondrial (Homo sapiens), Q96CM8 (parent)
chain: MAVYVGMLRLGRLCAGSSGVLGARAALSRSWQEARLQGVRFLSSREVDRMVSTPIGGLSYVQGCTKKHLNSKTVGQCLETTAQRVPEREALVVLHEDVRLTFAQLKEEVDKAASGLLSIGLCKGDRLGMWGPNSYAWVLMQLATAQAGIILVSVNPAYQAMELEYVLKKVGCKALVFPKQFKTQQYYNVLKQICPEVENAQPGALKSQRLPDLTTVISVDAPLPGTLLLDEVVAAGSTRQHLDQLQYNQQFLSCHDPINIQFTSGTTGSPKGATLSHYNIVNNSNILGERLKLHEKTPEQLRMILPNPLYHCLGSVAGTMMCLMYGATLILASPIFNGKKALEAISRERGTFLYGTPTMFVDILNQPDFSSYDISTMCGGVIAGSPAPPELIRAIINKINMKDLVVAYGTTENSPVTFAHFPEDTVEQKAESVGRIMPHTEARIMNMEAGTLAKLNTPGELCIRGYCVMLGYWGEPQKTEEAVDQDKWYWTGDVATMNEQGFCKIVGRSKDMIIRGGENIYPAELEDFFHTHPKVQEVQVVGVKDDRMGEEICACIRLKDGEETTVEEIKAFCKGKISHFKIPKYIVFVTNYPLTISGKIQKFKLREQMERHLNL
partner: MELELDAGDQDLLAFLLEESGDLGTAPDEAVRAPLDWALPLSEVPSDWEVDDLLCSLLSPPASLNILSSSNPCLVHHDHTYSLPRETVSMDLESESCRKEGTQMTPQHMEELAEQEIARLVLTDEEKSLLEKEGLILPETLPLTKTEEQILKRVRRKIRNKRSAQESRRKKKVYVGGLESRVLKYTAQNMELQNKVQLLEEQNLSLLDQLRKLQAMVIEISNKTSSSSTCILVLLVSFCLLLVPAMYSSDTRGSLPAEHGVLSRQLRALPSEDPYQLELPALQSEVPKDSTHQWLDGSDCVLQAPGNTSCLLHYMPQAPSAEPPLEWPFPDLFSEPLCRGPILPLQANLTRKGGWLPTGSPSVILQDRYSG
B2: Isoform 1 of Targeting protein for Xklp2 (Homo sapiens), Q9ULW0-1 (parent)
chain: MSQVKSSYSYDAPSDFINFSSLDDEGDTQNIDSWFEEKANLENKLLGKNGTGGLFQGKTPLRKANLQQAIVTPLKPVDNTYYKEAEKENLVEQSIPSNACSSLEVEAAISRKTPAQPQRRSLRLSAQKDLEQKEKHHVKMKAKRCATPVIIDEILPSKKMKVSNNKKKPEEEGSAHQDTAEKNASSPEKAKGRHTVPCMPPAKQKFLKSTEEQELEKSMKMQQEVVEMRKKNEEFKKLALAGIGQPVKKSVSQVTKSVDFHFRTDERIKQHPKNQEEYKEVNFTSELRKHPSSPARVTKGCTIVKPFNLSQGKKRTFDETVSTYVPLAQQVEDFHKRTPNRYHLRSKKDDINLLPSKSSVTKICRDPQTPVLQTKHRARAVTCKSTAELEAEELEKLQQYKFKARELDPRILEGGPILPKKPPVKPPTEPIGFDLEIEKRIQERESKKKTEDEHFEFHSRPCPTKILEDVVGVPEKKVLPITVPKSPAFALKNRIRMPTKEDEEEDEPVVIKAQPVPHYGVPFKPQIPEARTVEICPFSFDSRDKERQLQKEKKIKELQKGEVPKFKALPLPHFDTINLPEKKVKNVTQIEPFCLETDRRGALKAQTWKHQLEEELRQQKEAACFKARPNTVISQEPFVPKKEKKSVAEGLSGSLVQEPFQLATEKRAKERQELEKRMAEVEAQKAQQLEEARLQEEEQKKEELARLRRELVHKANPIRKYQGLEIKSSDQPLTVPVSPKFSTRFHC
partner: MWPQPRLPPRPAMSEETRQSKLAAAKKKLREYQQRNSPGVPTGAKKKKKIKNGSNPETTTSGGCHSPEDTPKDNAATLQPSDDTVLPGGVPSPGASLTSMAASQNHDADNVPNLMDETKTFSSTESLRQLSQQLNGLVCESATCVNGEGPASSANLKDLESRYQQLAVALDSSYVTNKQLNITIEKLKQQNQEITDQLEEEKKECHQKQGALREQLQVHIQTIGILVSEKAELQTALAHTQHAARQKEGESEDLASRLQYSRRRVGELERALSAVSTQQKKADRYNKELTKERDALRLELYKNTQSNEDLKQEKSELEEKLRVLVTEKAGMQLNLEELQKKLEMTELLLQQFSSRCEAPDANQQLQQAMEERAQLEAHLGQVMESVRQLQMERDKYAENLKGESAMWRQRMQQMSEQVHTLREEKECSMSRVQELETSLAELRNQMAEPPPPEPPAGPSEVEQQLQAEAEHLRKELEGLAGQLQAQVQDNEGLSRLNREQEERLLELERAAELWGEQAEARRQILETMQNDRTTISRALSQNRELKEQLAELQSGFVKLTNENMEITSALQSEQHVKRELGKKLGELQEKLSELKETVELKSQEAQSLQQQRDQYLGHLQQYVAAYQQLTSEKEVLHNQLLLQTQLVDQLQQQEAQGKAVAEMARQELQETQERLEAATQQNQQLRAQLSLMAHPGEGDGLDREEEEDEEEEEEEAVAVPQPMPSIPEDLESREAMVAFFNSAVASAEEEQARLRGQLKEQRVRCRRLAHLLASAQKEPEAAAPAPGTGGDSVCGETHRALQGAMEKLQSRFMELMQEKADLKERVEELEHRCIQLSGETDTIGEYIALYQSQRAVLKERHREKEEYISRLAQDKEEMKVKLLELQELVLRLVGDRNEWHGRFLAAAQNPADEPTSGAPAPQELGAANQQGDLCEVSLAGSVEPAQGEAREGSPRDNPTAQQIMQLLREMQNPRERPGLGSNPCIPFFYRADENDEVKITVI
B3: Keratin-associated protein 3-2 (Homo sapiens), Q9BYR7 (parent)
chain: MDCCASRSCSVPTGPATTICSSDKSCRCGVCLPSTCPHTVWLLEPICCDNCPPPCHIPQPCVPTCFLLNSCQPTPGLETLNLTTFTQPCCEPCLPRGC
partner: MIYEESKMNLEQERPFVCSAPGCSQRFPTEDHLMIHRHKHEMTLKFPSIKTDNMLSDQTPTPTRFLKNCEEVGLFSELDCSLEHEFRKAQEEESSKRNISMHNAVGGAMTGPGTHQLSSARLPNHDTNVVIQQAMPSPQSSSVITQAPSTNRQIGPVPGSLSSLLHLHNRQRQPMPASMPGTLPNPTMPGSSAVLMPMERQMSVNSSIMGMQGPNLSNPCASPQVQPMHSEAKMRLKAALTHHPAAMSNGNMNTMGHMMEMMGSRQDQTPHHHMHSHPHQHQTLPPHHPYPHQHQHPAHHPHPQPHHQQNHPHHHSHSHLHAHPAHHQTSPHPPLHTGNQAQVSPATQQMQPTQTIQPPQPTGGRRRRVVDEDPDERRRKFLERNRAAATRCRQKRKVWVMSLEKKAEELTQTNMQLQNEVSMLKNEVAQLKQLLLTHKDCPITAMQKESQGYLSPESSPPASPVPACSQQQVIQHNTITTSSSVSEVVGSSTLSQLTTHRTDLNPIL
B4: Ligand-dependent corepressor (Homo sapiens), Q96JN0 (parent)
chain: MQRMIQQFAAEYTSKNSSTQDPSQPNSTKNQSLPKASPVTTSPTAATTQNPVLSKLLMADQDSPLDLTVRKSQSEPSEQDGVLDLSTKKSPCAGSTSLSHSPGCSSTQGNGRPGRPSQYRPDGLRSGDGVPPRSLQDGTREGFGHSTSLKVPLARSLQISEELLSRNQLSTAASLGPSGLQNHGQHLILSREASWAKPHYEFNLSRMKFRGNGALSNISDLPFLAENSAFPKMALQAKQDGKKDVSHSSPVDLKIPQVRGMDLSWESRTGDQYSYSSLVMGSQTESALSKKLRAILPKQSRKSMLDAGPDSWGSDAEQSTSGQPYPTSDQEGDPGSKQPRKKRGRYRQYNSEILEEAISVVMSGKMSVSKAQSIYGIPHSTLEYKVKERLGTLKNPPKKKMKLMRSEGPDVSVKIELDPQGEAAQSANESKNE
B5: Homeobox protein VENTX (Homo sapiens), O95231 (parent)
chain: MRLSSSPPRGPQQLSSFGSVDWLSQSSCSGPTHTPRPADFSLGSLPGPGQTSGAREPPQAVSIKEAAGSSNLPAPERTMAGLSKEPNTLRAPRVRTAFTMEQVRTLEGVFQHHQYLSPLERKRLAREMQLSEVQIKTWFQNRRMKHKRQMQDPQLHSPFSGSLHAPPAFYSTSSGLANGLQLLCPWAPLSGPQALMLPPGSFWGLCQVAQEALASAGASCCGQPLASHPPTPGRPSLGPALSTGPRGLCAMPQTGDAF
partner: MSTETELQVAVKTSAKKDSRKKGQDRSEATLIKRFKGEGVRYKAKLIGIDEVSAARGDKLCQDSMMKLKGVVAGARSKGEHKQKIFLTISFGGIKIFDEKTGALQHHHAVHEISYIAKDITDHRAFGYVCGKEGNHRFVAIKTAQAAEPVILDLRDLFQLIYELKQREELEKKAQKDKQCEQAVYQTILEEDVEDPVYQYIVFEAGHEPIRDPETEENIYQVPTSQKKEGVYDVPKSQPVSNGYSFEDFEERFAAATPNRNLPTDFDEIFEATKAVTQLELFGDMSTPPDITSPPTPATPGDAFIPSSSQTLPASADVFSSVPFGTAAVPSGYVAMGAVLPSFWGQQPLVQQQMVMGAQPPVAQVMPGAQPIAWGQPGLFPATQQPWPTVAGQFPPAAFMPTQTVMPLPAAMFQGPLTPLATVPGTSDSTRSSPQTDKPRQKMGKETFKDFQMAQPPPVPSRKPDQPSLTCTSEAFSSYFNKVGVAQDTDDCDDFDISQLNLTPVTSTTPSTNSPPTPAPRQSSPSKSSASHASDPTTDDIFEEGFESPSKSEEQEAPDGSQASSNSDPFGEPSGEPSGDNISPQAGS
B6: Cyclin-H (Homo sapiens), P51946 (parent)
chain: MYHNSSQKRHWTFSSEEQLARLRADANRKFRCKAVANGKVLPNDPVFLEPHEEMTLCKYYEKRLLEFCSVFKPAMPRSVVGTACMYFKRFYLNNSVMEYHPRIIMLTCAFLACKVDEFNVSSPQFVGNLRESPLGQEKALEQILEYELLLIQQLNFHLIVHNPYRPFEGFLIDLKTRYPILENPEILRKTADDFLNRIALTDAYLLYTPSQIALTAILSSASRAGITMESYLSESLMLKENRTCLSQLLDIMKSMRNLVKKYEPPRSEEVAVLKQKLERCHSAELALNVITKKRKGYEDDDYVSKKSKHEEEEWTDDDLVESL
partner: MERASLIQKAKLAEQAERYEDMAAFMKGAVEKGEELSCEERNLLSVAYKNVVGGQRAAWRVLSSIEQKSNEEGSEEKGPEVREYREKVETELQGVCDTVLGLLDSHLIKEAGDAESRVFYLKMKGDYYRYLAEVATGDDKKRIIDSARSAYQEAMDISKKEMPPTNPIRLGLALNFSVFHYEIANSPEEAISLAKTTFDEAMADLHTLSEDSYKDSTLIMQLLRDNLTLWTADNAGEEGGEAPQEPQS
B7: Sorting nexin-15 (Homo sapiens), Q9NRS6 (parent)
chain: MSRQAKDDFLRHYTVSDPRTHPKGYTEYKVTAQFISKKDPEDVKEVVVWKRYSDFRKLHGDLAYTHRNLFRRLEEFPAFPRAQVFGRFEASVIEERRKGAEDLLRFTVHIPALNNSPQLKEFFRGGEVTRPLEVSRDLHILPPPLIPTPPPDDPRLSQLLPAERRGLEELEVPVDPPPSSPAQEALDLLFNCESTEEASGSPARGPLTEAELALFDPFSKEEGAAPSPTHVAELATMEVESARLDQEPWEPGGQEEEEDGEGGPTPAYLSQATELITQALRDEKAGAYAAALQGYRDGVHVLLQGVPSDPLPARQEGVKKKAAEYLKRAEEILRLHLSQLPP

Variants of B1 are the subject of the first experiment. Particulars: with creb3_human CREB3, O43889.
Regarding G19W, the “effect of a mutation on the interaction” value is given as “disrupting interaction strength”.

As to A34V, the “effect of a mutation on the interaction” value is reported as “disrupting interaction strength”.

Variants of B2 are the subject of another experiment. Particulars: with goga2_human GOLGA2, Q08379.
As for T464N, the “effect of a mutation on the interaction” value is on record as “with no effect”.

Variants of B3 are the subject of a further experiment. Particulars: with creb5_human CREB5, Q02930.
For S8G, the “effect of a mutation on the interaction” value is on record as “with no effect”.

Regarding R27C, the “effect of a mutation on the interaction” value is reported as “with no effect”.

Variants of B4 are the subject of the next experiment. Particulars: with ctbp2_human CTBP2, P56545.
Regarding T44M, the “effect of a mutation on the interaction” value was “with no effect”.

The variants in the next experiment derive from B5. Particulars: with dab1_human DAB1, O75553.
With A226E, the “effect of a mutation on the interaction” value is reported as “disrupting interaction strength”.

In the case of L42P, the “effect of a mutation on the interaction” value is listed as “with no effect”.

In the case of M251V, the “effect of a mutation on the interaction” value is recorded as “with no effect”.

Variants of B6 are the subject of a further experiment. Particulars: with 1433s_human SFN.
With N155T, the “effect of a mutation on the interaction” value was “with no effect”.

The variants in a further experiment derive from B7. Particulars: with reep6_human REEP6, Q96HR9.
Sequence of reep6_human REEP6, Q96HR9 (Q96HR9 whole entry): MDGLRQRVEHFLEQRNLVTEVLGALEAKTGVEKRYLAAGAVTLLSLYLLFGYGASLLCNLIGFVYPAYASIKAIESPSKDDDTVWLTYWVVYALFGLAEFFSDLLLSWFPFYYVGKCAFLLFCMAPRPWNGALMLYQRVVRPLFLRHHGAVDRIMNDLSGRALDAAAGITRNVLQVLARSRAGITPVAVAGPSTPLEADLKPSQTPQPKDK
For R314C, the “effect of a mutation on the interaction” value was “with no effect”.

Variants of B7 are the subject of a further experiment. Particulars: with ar6p1_human ARL6IP1, Q15041.
Sequence of ar6p1_human ARL6IP1, Q15041 (Q15041 whole entry): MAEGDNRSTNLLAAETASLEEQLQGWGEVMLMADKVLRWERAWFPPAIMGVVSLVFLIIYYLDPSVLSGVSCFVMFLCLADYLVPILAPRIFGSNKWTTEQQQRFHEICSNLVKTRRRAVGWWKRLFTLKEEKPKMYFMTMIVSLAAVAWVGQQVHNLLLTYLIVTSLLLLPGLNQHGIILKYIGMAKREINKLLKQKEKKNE
R314C: the “effect of a mutation on the interaction” value is “with no effect”.
